Measurements taken from article PMC314469, “Protein Interaction Networks by Proteome Peptide Scanning” (PLoS Biology, 2004).

Key:
Assay in all cases: SPOT array
[1] = target: T1, Boi1 SH3 (BOI1_YEAST), P38041
T1 chain: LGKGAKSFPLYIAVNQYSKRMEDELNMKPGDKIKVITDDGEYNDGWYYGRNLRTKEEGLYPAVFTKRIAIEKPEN

[2] = target: T2, Rvs167 SH3 (RV167_YEAST), P39743
T2 chain: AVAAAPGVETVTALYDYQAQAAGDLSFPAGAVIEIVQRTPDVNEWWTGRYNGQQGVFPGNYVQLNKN

[3] = target: T3, Myo5 SH3 (MYO5_YEAST), Q04439
T3 chain: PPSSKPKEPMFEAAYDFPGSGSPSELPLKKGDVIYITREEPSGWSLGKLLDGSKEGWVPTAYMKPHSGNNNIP

[4] = target: T4, Yhr016c SH3 (YSC84_YEAST), P32793
T4 chain: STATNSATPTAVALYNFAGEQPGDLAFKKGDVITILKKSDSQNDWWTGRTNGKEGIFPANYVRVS

[5] = target: T5, Boi2 SH3 (BOI2_YEAST), P39969
T5 chain: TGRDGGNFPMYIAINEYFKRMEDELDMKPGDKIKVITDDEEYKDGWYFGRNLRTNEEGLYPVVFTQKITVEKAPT

[6] = target: Sho1 SH3 (SHO1_YEAST), P40073
Sequence of Sho1 SH3 (SHO1_YEAST), P40073 (P40073 295-366): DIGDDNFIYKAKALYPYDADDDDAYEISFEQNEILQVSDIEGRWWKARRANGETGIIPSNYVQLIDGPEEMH

[7] = target: T6, Yfr024 SH3 (LSB3_YEAST), P43603
T6 chain: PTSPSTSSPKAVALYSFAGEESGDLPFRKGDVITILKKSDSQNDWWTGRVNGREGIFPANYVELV

Binder	normalised SPOT signal, Boehringer light units (BLU); mean over the file's lines of this peptide [1]	normalised SPOT signal, Boehringer light units (BLU); mean over the file's lines of this peptide [2]	normalised SPOT signal, Boehringer light units (BLU); mean over the file's lines of this peptide [3]	normalised SPOT signal, Boehringer light units (BLU); mean over the file's lines of this peptide [4]	normalised SPOT signal, Boehringer light units (BLU); mean over the file's lines of this peptide [5]	normalised SPOT signal, Boehringer light units (BLU); mean over the file's lines of this peptide [6]	normalised SPOT signal, Boehringer light units (BLU); mean over the file's lines of this peptide [7]
ATKRKTIPVYPPVQ [YCR046C 20-33]	263	49.7	274	28.1	59.9	30.2	204
ALWAKFFPEKPLNI [YGR024C 111-124]	103	50.7	154	75.9	18.8	115	405
AVLIRADPLNPKVV [YCR028C 355-368]	15.3	12.9	102	9.5	-0	13.9	34.4
ASFRKTKPPPPLDF [YAL017W 81-94]	1950	48.5	169	304	21.6	19.5	816
AVVYKLKPYIPSLS [YGR284C 61-74]	99.5	31.8	112	32.4	24.9	93.3	132
ATEAKSLPKIPSIP [YPL176C 343-356]	108	47.7	137	67.6	58.5	19100	39.5
AMESRVAPEIPGLI [YGL130W 4-17]	82.6	60.5	426	45.4	0	47.7	517
ALSTKGYPHEPPLL [YGR172C 61-74]	193	63.8	139	15.2	12.6	35.4	26.8
AVQLKRQPAQPRES [YBR191W 125-138]	1480	73.8	238	41.3	14.1	65	438
ATVVKNSPGDPELF [YNL187W 329-342]	644	28.9	76.2	13.3	17	51.1	27.6
APVVKSEPSLPRMR [YJL083W 57-70]	1950	70.8	241	63.5	17.7	49.7	512
AVGGKWEPGNPIAI [YHR113W 80-93]	41.1	39.6	78.4	19.6	14.1	0	17.2
APPPKEEPAAPTST [YGR162W 923-936]	76.3	15.9	117	0.6	3.5	37.7	5.8
AQKLKLLPEEPFQR [YDL001W 74-87]	713	76.9	401	3.4	16.2	3780	29.1
ATGKRKLPGWPSAD [YIL165C 34-47]	127	80.9	136	92.2	4	52.8	3620
ASKHKMFPFNPAKI [YLR115W 531-544]	349	80.6	953	16.3	1.5	65.5	214
